In test [1] the target is T1, DLL3 (target in the Fab-Zap internalization assay) (UniProt Q9NYJ7 27-618, limits assumed).
T1 sequence (looked up): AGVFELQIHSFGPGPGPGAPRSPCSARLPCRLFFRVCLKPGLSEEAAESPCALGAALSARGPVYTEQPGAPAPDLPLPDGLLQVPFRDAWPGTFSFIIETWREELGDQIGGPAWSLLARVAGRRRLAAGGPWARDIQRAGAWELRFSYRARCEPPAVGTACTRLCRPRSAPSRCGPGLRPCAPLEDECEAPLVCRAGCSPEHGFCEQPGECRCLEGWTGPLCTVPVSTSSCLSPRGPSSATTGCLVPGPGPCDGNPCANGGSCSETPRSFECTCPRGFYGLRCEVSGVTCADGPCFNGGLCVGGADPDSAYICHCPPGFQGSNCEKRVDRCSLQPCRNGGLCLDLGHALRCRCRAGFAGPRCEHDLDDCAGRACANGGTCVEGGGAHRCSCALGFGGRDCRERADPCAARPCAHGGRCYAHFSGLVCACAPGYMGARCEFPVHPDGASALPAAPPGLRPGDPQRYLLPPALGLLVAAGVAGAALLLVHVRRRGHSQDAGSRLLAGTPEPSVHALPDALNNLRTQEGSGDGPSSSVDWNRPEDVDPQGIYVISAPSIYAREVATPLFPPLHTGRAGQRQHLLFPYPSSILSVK
As to the kind of experiment: cell-based or functional assay.

Test [2] concerns the target T2, hDLL3 (human, UniProt Q9NYJ7 27-492, limits assumed).
T2 construct: also called human DLL3
T2 sequence: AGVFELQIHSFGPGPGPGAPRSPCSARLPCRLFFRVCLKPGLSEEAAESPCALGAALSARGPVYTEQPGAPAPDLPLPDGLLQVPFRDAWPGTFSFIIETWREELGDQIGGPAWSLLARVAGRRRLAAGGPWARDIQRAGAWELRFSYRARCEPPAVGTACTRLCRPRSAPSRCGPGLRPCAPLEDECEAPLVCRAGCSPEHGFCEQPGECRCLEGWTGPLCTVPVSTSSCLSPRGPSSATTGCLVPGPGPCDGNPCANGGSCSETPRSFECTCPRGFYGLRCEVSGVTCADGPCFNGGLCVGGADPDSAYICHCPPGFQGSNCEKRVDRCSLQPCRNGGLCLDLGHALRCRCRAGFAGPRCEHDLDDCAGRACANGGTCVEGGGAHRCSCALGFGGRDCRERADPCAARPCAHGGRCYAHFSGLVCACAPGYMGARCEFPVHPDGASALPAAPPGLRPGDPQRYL
As to the kind of experiment: Affinity hDLL3 of Table 30; method not given.

A word on the Kd: it is the concentration at which binding is half-saturated.

B1: B2 (antibody, V domains shown)
VH: QVQLVQSGAEVKKPGASVKVSCKASGYTFTSYYMHWVRQAPGQGLEWMGIINPSGGSTSYAQKFRGRVTMTRDTSTSTVYMELSSLRSEDTAVYYCARGDYDILTDYYYNMDVWGQGTTVTVSS
VL: DIQMTQSPSAMSASVGDRVTITCRASQGISNYLAWFQQKPGKVPKRLIYAASSLQSGVPSRFSGSGSGTEFTLTISSLQPEDFATYYCLQHNSYPYTFGQGTKLEIK
notes: Purified hybridoma monoclonal antibody (Ablexis AlivaMab Kappa mice); format there not clear; also called 3-B2-A
On to B1, for which the “Percent Max Killing (Fab-Zap internalization assay, 10 ug/ml)” value in test [1] was found to be 71.4%. Besides, in test [2], the Kd was 3.55 nM.

The values are drawn from US20240368269A1 (Memorial Sloan Kettering, published 2024).
